Assay results published in the Immune Epitope Database (IEDB).

What was measured:
HLA-A*02:17 = assay: IEDB peptide-MHC binding, purified MHC/competitive/radioactivity; filed as Kd, often an IC50 or EC50 that approximates it; ≥ and ≤ were set here for values at or beyond the usual limits of such assays
HLA-A*02:01 [1] = assay: as above
HLA-A*02:06 = assay: as above
HLA-A*03:01 = assay: IEDB peptide-MHC binding, purified MHC/direct/fluorescence; filed as Kd, often an IC50 or EC50 that approximates it; ≥ and ≤ were set here for values at or beyond the usual limits of such assays
HLA-B*27:05 = assay: as above
HLA-A*26:01 = assay: as above; conditions: source organism: Salmonella enterica subsp. enterica serovar Typhimurium
HLA-B*15:17 = assay: as above
HLA-B*15:01 [2] = assay: as above
HLA-A*02:01 [3] = assay: as above
HLA-B*58:01 = assay: as above
HLA-B*07:02 = assay: as above
HLA-A*01:01 = assay: as above
HLA-B*57:01 = assay: as above
HLA-B*08:01 [4] = assay: IEDB peptide-MHC binding, purified MHC/competitive/fluorescence; ≥ and ≤ were set here for values at or beyond the usual limits of such assays
HLA-A*11:01 [5] = assay: as above; conditions: source organism: Zaire ebolavirus
HLA-A*02:01 [6] = assay: as above
HLA-A*24:02 [7] = assay: as above; conditions: source organism: Zaire ebolavirus
HLA-B*39:01 = assay: IEDB peptide-MHC binding, purified MHC/direct/fluorescence; filed as Kd, often an IC50 or EC50 that approximates it; ≥ and ≤ were set here for values at or beyond the usual limits of such assays
HLA-A*11:01 [8] = assay: as above
HLA-A*69:01 = assay: as above
HLA-A*31:01 = assay: as above
HLA-B*51:01 [9] = assay: as above; conditions: source organism: Mycobacterium tuberculosis
HLA-B*46:01 = assay: as above
HLA-B*40:01 = assay: as above
HLA-B*18:01 = assay: as above
HLA-B*48:01 = assay: as above
HLA-A*02:03 [10] = assay: IEDB peptide-MHC binding, purified MHC/competitive/radioactivity; filed as Kd, often an IC50 or EC50 that approximates it; ≥ and ≤ were set here for values at or beyond the usual limits of such assays
HLA-A*29:02 = assay: IEDB peptide-MHC binding, purified MHC/direct/fluorescence; filed as Kd, often an IC50 or EC50 that approximates it; ≥ and ≤ were set here for values at or beyond the usual limits of such assays
HLA-B*44:02 = assay: as above
HLA-A*23:01 = assay: IEDB peptide-MHC binding, purified MHC/competitive/radioactivity; filed as Kd, often an IC50 or EC50 that approximates it; ≥ and ≤ were set here for values at or beyond the usual limits of such assays; conditions: source organism: Dengue virus 1 Brazil/97-11/1997
HLA-B*15:01 [11] = assay: as above; conditions: source organism: Dengue virus 1 Brazil/97-11/1997
HLA-B*35:01 = assay: as above
HLA-A*24:02 [12] = assay: as above; conditions: source organism: Dengue virus 1 Brazil/97-11/1997
HLA-B*08:01 [13] = assay: as above; conditions: source organism: Dengue virus 1 Brazil/97-11/1997
HLA-A*32:01 = assay: as above; conditions: source organism: Dengue virus 1 Brazil/97-11/1997
HLA-A*68:02 = assay: as above; conditions: source organism: Dengue virus 1 Brazil/97-11/1997
HLA-B*51:01 [14] = assay: as above; conditions: source organism: Dengue virus 4 Philippines/H241/1956
HLA-B*53:01 = assay: as above; conditions: source organism: Dengue virus 4 Philippines/H241/1956
HLA-A*02:03 [15] = assay: IEDB peptide-MHC binding, purified MHC/direct/fluorescence; filed as Kd, often an IC50 or EC50 that approximates it; ≥ and ≤ were set here for values at or beyond the usual limits of such assays; conditions: source organism: Mycobacterium tuberculosis str. Haarlem
[16] = source organism: Dengue virus 2 Jamaica/1409/1983
[17] = source organism: Salmonella enterica subsp. enterica serovar Typhimurium
[18] = source organism: Zaire ebolavirus
[19] = source organism: Mycobacterium tuberculosis
[20] = source organism: Dengue virus 1 Singapore/S275/1990
[21] = source organism: Dengue virus 1 Brazil/97-11/1997
[22] = source organism: West Nile virus
[23] = source organism: Vaccinia virus
[24] = source organism: Dengue virus 3 China/80-2/1980
[25] = source organism: Vibrio cholerae
[26] = source organism: Lake Victoria marburgvirus - Popp
[27] = source organism: Dengue virus 4 Philippines/H241/1956
[28] = source organism: Mycobacterium avium 104

Work on YMWLGARFL yielded a Kd (HLA-A*02:17; [16]) of 94.2 nM and a Kd (HLA-A*02:01 [1]; [16]) of 6.72 nM.
IILEFFLIVL gave a Kd (HLA-A*02:17; [16]) of 802 nM, a Kd (HLA-A*02:01 [1]; [16]) of 109 nM and a Kd (HLA-A*02:06; [16]) of 325 nM.
KSNGAQQWL was tested, and the Kd (HLA-A*03:01; [17]) was no less than 20000 nM, the Kd (HLA-B*27:05; [17]) was no less than 20000 nM and the Kd (HLA-A*26:01) was no less than 20000 nM. It also gave a Kd (HLA-B*15:17; [17]) of 6 nM, a Kd (HLA-B*15:01 [2]; [17]) of no less than 20000 nM and a Kd (HLA-A*02:01 [3]; [17]) of no less than 20000 nM. For the same sequence, the Kd (HLA-B*58:01; [17]) was 355 nM, the Kd (HLA-B*07:02; [17]) was no less than 20000 nM and the Kd (HLA-A*01:01; [17]) was no less than 20000 nM. For the same sequence, the Kd (HLA-B*57:01; [17]) was 2160 nM.
With QGIVRQRVI the IC50 (HLA-B*08:01 [4]; [18]) was 7350 nM, the IC50 (HLA-A*11:01 [5]) was no less than 159000 nM and the IC50 (HLA-A*02:01 [6]; [18]) was no less than 401000 nM. The IC50 (HLA-A*24:02 [7]) was 11400 nM.
In the case of GPRGRHVVL, the Kd (HLA-A*03:01; [19]) is reported as no less than 20000 nM, the Kd (HLA-B*39:01; source organism: Mycobacterium tuberculosis str. Haarlem) is reported as no less than 20000 nM and the Kd (HLA-B*27:05; [19]) is reported as no less than 20000 nM. The Kd (HLA-A*11:01 [8]; [19]) was no less than 20000 nM, the Kd (HLA-A*69:01; [19]) was no less than 20000 nM and the Kd (HLA-A*31:01; [19]) was no less than 20000 nM. The Kd (HLA-B*15:17; [19]) was no less than 20000 nM, the Kd (HLA-B*15:01 [2]; [19]) was no less than 20000 nM and the Kd (HLA-B*51:01 [9]) was no less than 20000 nM. For the same sequence, the Kd (HLA-B*46:01; [19]) was no less than 20000 nM, the Kd (HLA-A*02:01 [3]; [19]) was no less than 20000 nM and the Kd (HLA-B*58:01; [19]) was no less than 20000 nM. It also gave a Kd (HLA-B*40:01; [19]) of no less than 20000 nM, a Kd (HLA-A*01:01; [19]) of no less than 20000 nM and a Kd (HLA-B*18:01; [19]) of no less than 20000 nM. The Kd (HLA-B*57:01; [19]) was no less than 20000 nM and the Kd (HLA-B*48:01; [19]) was no less than 20000 nM.
MLLMLLPTA showed a Kd (HLA-A*02:17; [20]) of 161 nM, a Kd (HLA-A*02:01 [1]; [20]) of 0.482 nM and a Kd (HLA-A*02:06; [21]) of 1.08 nM.
LLLTLLATV was tested, and the Kd (HLA-A*02:17; [16]) was 157 nM, the Kd (HLA-A*02:03 [10]; [16]) was 1.55 nM and the Kd (HLA-A*02:06; [16]) was 1.01 nM.
YCPGTTVTL was tested, and the Kd (HLA-A*29:02; [22]) was no less than 20000 nM, the Kd (HLA-A*03:01; [22]) was no less than 20000 nM and the Kd (HLA-B*39:01; [22]) was 1310 nM. The Kd (HLA-B*44:02; [22]) was no less than 20000 nM, the Kd (HLA-B*27:05; [22]) was no less than 20000 nM and the Kd (HLA-A*11:01 [8]; [22]) was no less than 20000 nM. For the same sequence, the Kd (HLA-A*69:01; [22]) was no less than 20000 nM, the Kd (HLA-A*31:01; [22]) was no less than 20000 nM and the Kd (HLA-B*15:01 [2]; [22]) was no less than 20000 nM. The Kd (HLA-B*46:01; [22]) was no less than 20000 nM, the Kd (HLA-B*07:02; [22]) was no less than 20000 nM and the Kd (HLA-B*40:01; [22]) was no less than 20000 nM. The Kd (HLA-A*01:01; [22]) was no less than 20000 nM, the Kd (HLA-B*18:01; [22]) was no less than 20000 nM and the Kd (HLA-B*57:01; [22]) was no less than 20000 nM. The Kd (HLA-B*48:01; [22]) was no less than 20000 nM.
With FRAFRNLNV the IC50 (HLA-B*08:01 [4]; [23]) was 6190 nM and the IC50 (HLA-A*02:01 [6]; [23]) was no less than 89100 nM.
Work on VLLLVTHYA yielded a Kd (HLA-A*02:17; [24]) of 6820 nM and a Kd (HLA-A*02:01 [1]; [24]) of 6.97 nM.
MLMTGTLAVF gave a Kd (HLA-A*02:17; [20]) of 32.3 nM, a Kd (HLA-A*23:01) of 55 nM and a Kd (HLA-B*15:01 [11]) of 1.24 nM. For the same sequence, the Kd (HLA-A*02:01 [1]; [20]) was 75.1 nM, the Kd (HLA-B*35:01; [21]) was 342 nM and the Kd (HLA-A*24:02 [12]) was 296 nM.
Sequence MLMTGTLAV has a Kd (HLA-B*08:01 [13]) of 22.5 nM, a Kd (HLA-A*02:17; [20]) of 753 nM and a Kd (HLA-A*32:01) of 502 nM. For the same sequence, the Kd (HLA-A*02:03 [10]; [21]) was 0.47 nM, the Kd (HLA-A*02:01 [1]; [20]) was 19.7 nM and the Kd (HLA-A*68:02) was 9.71 nM. It also gave a Kd (HLA-A*02:06; [21]) of 9.69 nM.
For IMAAILAYTI, the Kd (HLA-A*02:17; [16]) was 1600 nM and the Kd (HLA-A*02:01 [1]; [16]) was 30.6 nM.
QMEQWGCPW gave a Kd (HLA-B*15:17; [25]) of 147 nM, a Kd (HLA-B*58:01; [25]) of 1060 nM and a Kd (HLA-B*57:01; [25]) of 5430 nM.
With ITDITSPLW the Kd (HLA-B*15:17; [26]) was no more than 1 nM, the Kd (HLA-B*58:01; [26]) was 3 nM and the Kd (HLA-B*57:01; [26]) was 64.5 nM.
FSMGLLCLTL showed a Kd (HLA-A*02:17; [27]) of 84 nM, a Kd (HLA-B*51:01 [14]) of no less than 69600 nM and a Kd (HLA-B*53:01) of 333 nM. It also gave a Kd (HLA-A*02:01 [1]; [27]) of 8990 nM, a Kd (HLA-A*02:06; [27]) of 8.49 nM and a Kd (HLA-B*35:01; [27]) of 3070 nM.
Sequence IILEFFLMVL has a Kd (HLA-A*02:17; [27]) of 1400 nM, a Kd (HLA-A*02:01 [1]; [27]) of 95.5 nM and a Kd (HLA-A*02:06; [21]) of 329 nM.
DMDYHKILT was tested, and the IC50 (HLA-B*08:01 [4]; [18]) was no less than 199000 nM, the IC50 (HLA-A*02:01 [6]; [18]) was no less than 277000 nM and the IC50 (HLA-A*24:02 [7]) was 4040 nM.
QLANAIFKL gave a Kd (HLA-A*02:17; [24]) of 24.4 nM and a Kd (HLA-A*02:01 [1]; [24]) of 4.09 nM.
Sequence EHVQGDIDL has a Kd (HLA-A*29:02; [28]) of no less than 20000 nM, a Kd (HLA-A*03:01; [28]) of no less than 20000 nM and a Kd (HLA-B*39:01; [28]) of 224 nM. For the same sequence, the Kd (HLA-B*44:02; [28]) was no less than 20000 nM, the Kd (HLA-B*27:05; [28]) was no less than 20000 nM and the Kd (HLA-A*11:01 [8]; [28]) was no less than 20000 nM. For the same sequence, the Kd (HLA-A*69:01; [28]) was no less than 20000 nM, the Kd (HLA-A*31:01; [28]) was no less than 20000 nM and the Kd (HLA-B*15:01 [2]; [28]) was no less than 20000 nM. For the same sequence, the Kd (HLA-B*46:01; [28]) was no less than 20000 nM, the Kd (HLA-A*02:01 [3]; [28]) was no less than 20000 nM and the Kd (HLA-B*58:01; [28]) was no less than 20000 nM. It also gave a Kd (HLA-B*07:02; [28]) of no less than 20000 nM, a Kd (HLA-A*01:01; [28]) of no less than 20000 nM and a Kd (HLA-B*18:01; [28]) of no less than 20000 nM. The Kd (HLA-B*57:01; [28]) was no less than 20000 nM and the Kd (HLA-B*48:01; [28]) was no less than 20000 nM.
Work on AMWDWSKSV yielded a Kd (HLA-A*02:03 [15]) of no more than 1 nM.
